According to the supplement of paper PMC12764529:
± gives the half width of the 95% confidence interval.

Assays:
[1] = folding stability dG unfold (combined trypsin and chymotrypsin); higher = more stable
Outline: (§1)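 Unfolding free energy was derived, per protease or combined, by relating Bayesian-fitted K50 values from sequencing counts to a sequence-predicted unfolded-state K50 and a shared folded-state K50. The underlying digests exposed cysteine-free mini-proteins under 80 residues, in a PA-tagged cDNA display construct, to trypsin and chymotrypsin at 11 threefold-diluted concentrations and to a no-protease condition. A filter kept only designs with AlphaFold2 dimer inter-PAE above 15.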

[2] = folding stability dG unfold from trypsin proteolysis; higher = more stable
Outline: as §1

[3] = folding stability dG unfold from chymotrypsin proteolysis; higher = more stable
Outline: as §1

## SAGGALKELPDGSVELYYNTETGLFTVRVRHPDKPPLVFTVESPEDALKFAKALEEKGIKIDKVVPAPSAGG [r13_727_TrMRF]
[1]
  folding stability dG unfold: 2.02 ± 0.14 kcal/mol
[2]
  folding stability dG unfold: 2.1 ± 0.068 kcal/mol
[3]
  folding stability dG unfold: 1.86 ± 0.065 kcal/mol

## SAGGAMVPVNFTLKFTYTNPDGTPVFREKPVTLPFPESDPAAAEAAARARAEAEAAARGVEVDLEVSLSAGG [r13_853_JUSTAS]
[1]
  folding stability dG unfold: 0.193 ± 0.11 kcal/mol
[2]
  folding stability dG unfold: 0.0284 ± 0.12 kcal/mol
[3]
  folding stability dG unfold: 0.219 ± 0.22 kcal/mol

## SAGGANIHVRMENPGDGKPMSFMIPVKEVREAKQEGKDEIKIPFGGGPMKVEIEPLPDGWVHIRMRMPSAGG [r13_171_TrROS]
[1]
  folding stability dG unfold: 0.201 ± 0.26 kcal/mol
[2]
  folding stability dG unfold: 0.417 ± 0.27 kcal/mol
[3]
  folding stability dG unfold: -0.0135 ± 0.4 kcal/mol

## SAGGAPGVPSVTVIPFDPSTGRALALVVDGDRVYVISSAVPLEVLRELGVDRVEPLPDGTLVAVSLASAGGS [r8_382_TrMRF]
[1]
  folding stability dG unfold: 1.38 ± 0.041 kcal/mol
[2]
  folding stability dG unfold: 1.13 ± 0.02 kcal/mol
[3]
  folding stability dG unfold: 1.49 ± 0.027 kcal/mol

## SAGGAPLVPVSTETYTVKDSKGNEVTITIETLPDGSYRITITYPNGEVKEYEFPSKEEAEKLEITVNPSAGG [r13_109_JUSTAS]
[1]
  folding stability dG unfold: 3.62 ± 0.14 kcal/mol
[2]
  folding stability dG unfold: 3.63 ± 0.23 kcal/mol
[3]
  folding stability dG unfold: 3.66 ± 0.1 kcal/mol

## SAGGAPNWKIEKIEIEYPGRKIEVWRHDNMWFIHIPAPPGYPIRIKIKIEPDNGETQTQERTFPIPPPSAGG [r13_191_TrROS]
[1]
  folding stability dG unfold: 2.37 ± 0.35 kcal/mol
[2]
  folding stability dG unfold: 1.75 ± 0.061 kcal/mol
[3]
  folding stability dG unfold: 2.83 ± 0.073 kcal/mol

## SAGGAPSSSPIPIDLGDPNDEEKLKAEVEAIEKEYAAKGVTPITVERVGENKYRIKIPTGGVATVALSAGGS [r16_703_JUSTAS]
[1]
  folding stability dG unfold: -0.169 ± 0.12 kcal/mol
[2]
  folding stability dG unfold: -0.55 ± 0.11 kcal/mol
[3]
  folding stability dG unfold: -0.0876 ± 0.12 kcal/mol

## SAGGAPTVELKTETIETEDGTYLVVEAKVPTPDVTLEIKLPHGGETEVVYDPETGTATVVFRLPPDWLSAGG [r13_380_TrMRF]
[1]
  folding stability dG unfold: 2.25 ± 0.15 kcal/mol
[2]
  folding stability dG unfold: 1.72 ± 0.088 kcal/mol
[3]
  folding stability dG unfold: 2.51 ± 0.053 kcal/mol

## SAGGAPVTVREEELPENSKLITIEYPDGLTLEVLEYPDKVLVREWDTATGKELSSRTLTHEELEKLLSAGGS [r8_476_JUSTAS]
[1]
  folding stability dG unfold: 2.19 ± 0.14 kcal/mol
[2]
  folding stability dG unfold: 1.81 ± 0.052 kcal/mol
[3]
  folding stability dG unfold: 2.41 ± 0.034 kcal/mol

## SAGGARFEFTTPEGDRVTVELETTADELRVRVTVHRENEPFTLEATFPLPPPAPPAVPADVPGPSLLLSAGG [r13_691_TrMRF]
[1]
  folding stability dG unfold: 1.91 ± 0.21 kcal/mol
[2]
  folding stability dG unfold: 2.06 ± 0.15 kcal/mol
[3]
  folding stability dG unfold: 1.62 ± 0.089 kcal/mol

## SAGGASLDDLPLEGIEVLEEEVIPLPNGSTLRKFLVKKPSPGPPELLVEVTEFVDEGSSSVSVTPLGSAGGS [r16_469_JUSTAS]
[1]
  folding stability dG unfold: 0.0997 ± 0.14 kcal/mol
[2]
  folding stability dG unfold: 0.179 ± 0.054 kcal/mol
[3]
  folding stability dG unfold: -0.301 ± 0.45 kcal/mol

## SAGGASTVEYEITLPLDPSGSVDPDTIRAAAEAIAAADPDFVDHRIEEITITRLPDGTVRFTVTISVPSAGG [r13_462_JUSTAS]
[1]
  folding stability dG unfold: 2.53 ± 0.092 kcal/mol
[2]
  folding stability dG unfold: 2.66 ± 0.11 kcal/mol
[3]
  folding stability dG unfold: 2.46 ± 0.049 kcal/mol

## SAGGDEIVERVRQLFEDLGFPVEIVDDDAPDGVLRVRISPEAVEKLGPLVINLPFPDIKEVRTELLPSAGGS [r8_318_TrMRF]
[1]
  folding stability dG unfold: 1.26 ± 0.025 kcal/mol
[2]
  folding stability dG unfold: 0.968 ± 0.013 kcal/mol
[3]
  folding stability dG unfold: 1.5 ± 0.015 kcal/mol

## SAGGDGPPKFEPISIPIGDGVIKIWRSPNGSIHLEIMPPGGKPVASKEYPFPDGRKLKLDIQVKPPEDSAGG [r13_584_TrROS]
[1]
  folding stability dG unfold: 0.466 ± 0.14 kcal/mol
[2]
  folding stability dG unfold: 0.394 ± 0.13 kcal/mol
[3]
  folding stability dG unfold: 0.252 ± 0.18 kcal/mol

## SAGGDITITKNPENDYYTITLPLPNSNSTAVAFLDPKTGTAVVINPDNPLVLVLEPNGTLKEVKLLPPSAGG [r13_101_TrMRF]
[1]
  folding stability dG unfold: 0.902 ± 0.15 kcal/mol
[2]
  folding stability dG unfold: 1.04 ± 0.05 kcal/mol
[3]
  folding stability dG unfold: 0.566 ± 0.2 kcal/mol

## SAGGDKKWTAEFDVRKRDDTVEVTLTFTDPNGNETTETYTLTDDELAKLLAELPPEFKNVTRNEVLESAGGS [r16_298_JUSTAS]
[1]
  folding stability dG unfold: 1.85 ± 0.16 kcal/mol
[2]
  folding stability dG unfold: 1.57 ± 0.043 kcal/mol
[3]
  folding stability dG unfold: 2.04 ± 0.11 kcal/mol

## SAGGDKNAKPIKPITISFTLEDGSKKTITATFYKDAVIVEITYINPKTGKPFTKTFVFKKKGVKLLLSAGGS [r16_419_TrMRF]
[1]
  folding stability dG unfold: 3.02 ± 0.21 kcal/mol
[2]
  folding stability dG unfold: 2.43 ± 0.096 kcal/mol
[3]
  folding stability dG unfold: 3.19 ± 0.094 kcal/mol

## SAGGDLKIEIEPYRMGDYPMYEVKIEDPDGKDITLWMNSNNGQMMVFYPNGKPRRVDSAEDVLEALKSAGGS [r8_168_TrROS]
[1]
  folding stability dG unfold: 0.149 ± 0.1 kcal/mol
[2]
  folding stability dG unfold: -0.243 ± 0.16 kcal/mol
[3]
  folding stability dG unfold: 0.185 ± 0.16 kcal/mol

## SAGGDNFKIEIQFFPDGHIFILIKWPNGDWILIPVPIEYPVPKRDPDGEVKEPGPVTHTHLFLIPANDSAGG [r13_236_TrROS]
[1]
  folding stability dG unfold: 2.74 ± 0.16 kcal/mol
[2]
  folding stability dG unfold: 1.88 ± 0.097 kcal/mol
[3]
  folding stability dG unfold: 3.21 ± 0.046 kcal/mol

## SAGGDNKPKVYPITFMIPPDDIKPGDEIPIDEIADNLGIPPNYTIKIKEVQPNPEDGYYMYRIEIVWSAGGS [r16_165_TrROS]
[1]
  folding stability dG unfold: 1.65 ± 0.073 kcal/mol
[2]
  folding stability dG unfold: 1.57 ± 0.041 kcal/mol
[3]
  folding stability dG unfold: 1.68 ± 0.085 kcal/mol

## SAGGDNVRPIKFEFKDGVKKSIYRSEDMIYINVEFYYDGRPLYRHSIEIPNIPPGDDAEIKFKIPPGSAGGS [r8_155_TrROS]
[1]
  folding stability dG unfold: 1.24 ± 0.21 kcal/mol
[2]
  folding stability dG unfold: 0.372 ± 0.18 kcal/mol
[3]
  folding stability dG unfold: 1.55 ± 0.22 kcal/mol

## SAGGDPIEDIVKEIAEEHGYPIKNVEVEPVDPNTLVVEVQMPNGYRIKIEIPYDPDGDLNINVEWEPSAGGS [r8_284_TrROS]
[1]
  folding stability dG unfold: 1.65 ± 0.23 kcal/mol
[2]
  folding stability dG unfold: 1.13 ± 0.11 kcal/mol
[3]
  folding stability dG unfold: 2.04 ± 0.045 kcal/mol

## SAGGDPNTARVVVLTGHPDVITPEQIRTLLENLGADEIKSVEVFTTPTSRVVRFVDSNGAPTVIFVPSAGGS [r8_86_TrMRF]
[1]
  folding stability dG unfold: 1.88 ± 0.072 kcal/mol
[2]
  folding stability dG unfold: 1.8 ± 0.038 kcal/mol
[3]
  folding stability dG unfold: 1.99 ± 0.032 kcal/mol

## SAGGDSISDIESVNIYSFNIPSNPYPYIIAELTIPDGRKIIAIYDPSTNTVTIIIEDDGKPRIITLPASAGG [r13_960_TrMRF]
[1]
  folding stability dG unfold: 2.7 ± 0.11 kcal/mol
[2]
  folding stability dG unfold: 2.49 ± 0.1 kcal/mol
[3]
  folding stability dG unfold: 2.9 ± 0.12 kcal/mol

## SAGGDSVYIPGSISEAIDALRENPNKTVHIMSPDGYYIKITVKWDGDGDYKIDIKWQPPPPPPDPEDKSAGG [r13_56_TrROS]
[1]
  folding stability dG unfold: 2.23 ± 0.39 kcal/mol
[2]
  folding stability dG unfold: 2.23 ± 0.33 kcal/mol
[3]
  folding stability dG unfold: 2.3 ± 0.21 kcal/mol

## SAGGDTVTTTETFPEKPILTVTTTSFSPSGTTTTTTTTYEVENGKIVSKLSTTTTTTAVAPAPPGTASAGGS [r16_682_JUSTAS]
[1]
  folding stability dG unfold: 0.941 ± 0.036 kcal/mol
[2]
  folding stability dG unfold: 0.71 ± 0.034 kcal/mol
[3]
  folding stability dG unfold: 1.05 ± 0.024 kcal/mol

## SAGGDWMLVIEIEIEGQPTPDGQIKVEISIEIELVRPPPPPITPWDRMAEEARDKNPNIPPDDPEAMTSAGG [r13_136_TrROS]
[1]
  folding stability dG unfold: 1.93 ± 0.2 kcal/mol
[2]
  folding stability dG unfold: 2.12 ± 0.11 kcal/mol
[3]
  folding stability dG unfold: 1.7 ± 0.095 kcal/mol
